# Test results published in patent US20240124556A1, “KERATIN BD-3, PREPARATION METHOD THEREFOR AND PHARMACEUTICAL COMPOSITION AND USE THEREOF” (INSTITUTE OF MATERIA MEDICA, CHINESE ACADEMY OF MEDICAL …, priority 2019, published 2024).
# Tests used:
# [1] = test system: acetic acid writhing in ICR mice; assay: Acetic acid writhing in ICR mice; format: in vivo; settings: for Writhing incubation period: 0.6% acetic acid i.p., model group 204.2 ± 19.6; for Frequency of writhing: within 15 minutes, model group 33.3 ± 2.5
# Description: • Animals: male ICR mice; • Drugs and reagents: aspirin, physiological saline, glacial acetic acid, protein BD-3. • Experiment grouping: • Model group; • Aspirin 300 mg/kg group; • Protein BD-3, 50 mg/kg group, 200 mg/kg group.
# One day after the experimental animals adapt to the environment, Aspirin 300 mg/kg, protein BD-3 50 mg/kg, 200 mg/kg were given orally one hour in advance, and the administration volume was 10 ml/kg; Then, 0.6% acetic acid solution was injected intraperitoneally, and the incubation period (seconds) and frequency of writhing in the animal was observed within 15 minutes.
# Calculate the mean and standard error of the data in each group. Compared with the model group by TTEST, P<0.05 was considered as statistically different.
# [2] = test system: cough induced by ammonia water in mice; assay: Antitussive test, cough induced by ammonia water in mice; format: in vivo, ICR mice; settings: for Incubation period (cough) / Number of coughs: X ± SEM; for Incubation period (cough): solvent control 26.9 ± 2.3; for Number of coughs: within 2 minutes, solvent control 67.1 ± 5.7
# Description: • Animals: male ICR mice; • Drugs and reagents: dextromethorphan hydrobromide, ammonia water, 0.2% CMC-Na, protein BD-3; • Apparatus: Compressed nebulizer (403T type), balance (XS105DU type). • Experiment grouping: • Solvent control group; • Dextromethorphan 15 mg/kg group; • Protein BD-3, 20 mg/kg group, 50 mg/kg group.
# Dextromethorphan and different doses of protein BD-3 (administration volume 10 ml/kg) were given orally in groups, and the solvent control group was given the same volume of distilled water. One hour later, mice were put into a sealed box and atomized 10% ammonia water for 10 seconds, and then observed and recorded the incubation period of cough in mice and the number of coughs in 2 minutes.
# Record the time point of oral administration, the time point of atomization experiment, the incubation period of mice cough and the number of coughs within 2 minutes, respectively. The incubation period of cough refers to the number of seconds from the start of the atomization of ammonia to the occurrence of cough. The performance of coughing in mice is based on contraction of their abdominal muscles (breast contraction) and opening their mouths at the same time. Calculate the mean and standard error of each group of data, and use TTEST to compare the model group with other groups, and P<0.05 is considered as a significant difference.
# [3] = test system: yeast-induced fever model in SD rats; assay: Yeast-induced fever model of SD rats; format: in vivo; settings: for Body temperature 2 hours after modeling / Body temperature 8 hours after modeling / Body temperature 4 hours after modeling / Body temperature 6 hours after modeling: 20% yeast s.c.; for Body temperature 2 hours after modeling: model group 37.5 ± 0.1; for Body temperature 8 hours after modeling: model group 37.6 ± 0.1; for Body temperature 4 hours after modeling / Body temperature 6 hours after modeling: model group 37.7 ± 0.1
# Description: • Animals: 230-260 grams of male SD rats; • Medicines: yeast (OXOID LP0021), aspirin (SIGMA A2093), protein BD-3; • Instruments: electronic balance (SARTORIUS BP121S type), electronic clinical thermometer (CITIZEN CT-513W type). • Experiment grouping: • Normal control group; • Model group: yeast fever model; • Positive control group: Aspirin 300 mg/kg group; • Protein BD-3, 10 mg/kg group, 50 mg/kg group. • Method:
# Preparation of experimental animals: After the experimental animals adapt to the experimental environment (temperature 22° C.±2° C., relative humidity 50%±2%) for 1 day. Pre-adaptation to measure rectal temperature at 8:00 and 15:00, rats were fasted and water was taken freely 12 h before experiment, and let the animal to empty its feces before measuring the rectal temperature. Apply petroleum jelly to the electronic thermometer probe before each temperature measurement. Insert the rat rectum 2 cm (can be marked at 2 cm to ensure that the depth of each insertion is consistent), and record the body temperature after the reading is stable.
# Subcutaneous injection of dry yeast to replicate rat fever model: The body temperature of the rats was measured before modeling. Qualified rats with a body temperature of 36.2-37.3° C. were selected and randomly divided into groups with 8 rats in each group. After oral administration of aspirin and different doses of protein BD-3, 20% yeast suspension (10 ml/kg) was injected subcutaneously immediately, and the normal control group was injected intraperitoneally with an equal volume of normal saline. The body temperatures of the rats were monitored after 2 hours for a total of 8 hours.
# According to the body temperature measured at each time point on the day of the experiment, calculate the mean, standard deviation and standard error of the body temperature of each group of rats. The data of each group was compared with TTEST, and P<0.05 was considered as a significant difference.
# [4] = test system: PLO-induced epilepsy in mice; assay: Pilocarpine (PLO) induced convulsive epilepsy in mice; format: in vivo, ICR mice; settings: for mortality rate / Grade IV seizure rate / Cases of Grade IV / Cases of deaths: PLO 225 mg/kg i.p.; for mortality rate / Cases of deaths: model group 0; for Grade IV seizure rate: model group 80%; for Cases of Grade IV / Cases of deaths: of 10 mice; for Cases of Grade IV: 30 min observation, model group 8; for Grade IV seizure incubation period / Grade II seizure incubation period / Grade III seizure incubation period: mean ± SEM; for Grade IV seizure incubation period: maximum recorded 1800 seconds, model group 894 ± 164; for Grade II seizure incubation period: model group 86 ± 5; for Grade III seizure incubation period: model group 142 ± 6
# Description: • Animals: male ICR mice; • Drugs: Pilocarpine HCl (PLO, pilocarpine, pilocarpine hydrochloride), Diazepam (diazepam tablets), protein BD-3. • Experiment grouping: • Model group: • Diazepam 2 mg/kg group; • Protein BD-3, 50 mg/kg group, 200 mg/kg group.
# The drug was administered once in the afternoon the day before modeling, PLO-225 mg/kg (modeling agent) was injected intraperitoneally 1 hour after the test drug was administered intragastrically on the day of modeling. And positive drug can be administered once 20 minutes before modeling. Observe for 30 minutes after PLO injection.
# Observation indicators: (1)Seizure situation: the time of seizures from Grade II to Grade IV; (2)the time to death.
# Seizure grade: Refer to Racine grading standard: Grade 0: No response; Grade I: manifested as twitching of facial muscles or the corners of the mouth; Grade II: can nod; Grade III: twitching of one limb; Grade IV: rigidity or body twitching; Grade V: generalized epilepsy (generalized tonic seizures).
# Count the number of Grade IV seizures and deaths in each group of mice in the experiment; Grade II, III and IV incubation period. […] Chi-square test was used for statistics of the number of cases. The mean value and standard error of the incubation period were calculated, and TTEST was used to compare the model group with other groups. P<0.05 was considered as a significant difference.
# [5] = summary statement, no dose given
molecule,measurement,setting,value
"BD-3: recombinant keratin, amino acid sequence SEQ ID NO:1, expressed in E. coli, band around 43 kD; tested material prepared in Example 4 (protein, listed as Bos taurus) MSYSCCLPNLSFRSSCSSRPCVPSSCCGTTLPGACNIPANVGSCNWFCEGSFNGSEKETMQFLNDRLASYLEKVRQLERDNAELESRILERSQQKILANKAENARLVVQIDNAKLAADDFRTKYQTELGLRQLVESDINGLRRILDELTLCKSDLEAQVESLKEELICLKQNHEQEVNTLRSQLGDRLNVEVDAAPTVDLNRVLNETRAQYEALVETNRRDVEEWYIRQTEELNKQVVSSSEQLQSYQAEIIELRRTVNALEVELQAQHNLRDSLENTLTETEARYSCQLAQVQGLIGNVESQLAEIRSDLERQNQEYQVLLDVRARLECEINTYRGLLDSEDCKLPCNPCATTNASSVGSCVTNPCTPCGPRSRFGPCNTFGC",Writhing incubation period,[1]; BD-3 50 mg/kg oral,221.5 ± 28.4 s
same,Frequency of writhing,[1]; BD-3 50 mg/kg oral,24.7 ± 3.0 times
same,Times of writhing vs model group (in words),"[1]; BD-3 50 mg/kg, P<0.05",can significantly reduce the times of writhing in mice
same,Writhing incubation period,[1]; BD-3 200 mg/kg oral,189.8 ± 10.4 s
same,Frequency of writhing,[1]; BD-3 200 mg/kg oral,29.5 ± 4.7 times
same,"Summary: analgesic effect, writhing (in words)",[1]; [5],can significantly reduce the number of writhing times in mice
same,Incubation period (cough),[2]; BD-3 20 mg/kg oral,31.6 ± 3.3 s
same,Number of coughs,[2]; BD-3 20 mg/kg oral,46.7 ± 4.1
same,Number of coughs vs solvent control (in words),"[2]; BD-3 20 mg/kg, P<0.05",significant improvement in the number of coughs
same,Incubation period (cough),[2]; BD-3 50 mg/kg oral,34.2 ± 2.1 s
same,Number of coughs,[2]; BD-3 50 mg/kg oral,53.6 ± 3.7
same,Cough incubation period vs solvent control (in words),"[2]; BD-3 50 mg/kg, P<0.05",significant improvement in the incubation period
same,Summary: antitussive effect (in words),[2]; [5],"can significantly extend the incubation period, significantly reduce the number of coughs"
same,Body temperature 2 hours after modeling,[3]; BD-3 10 mg/kg oral,37.0 ± 0.2 °C
same,Body temperature 8 hours after modeling,[3]; BD-3 10 mg/kg oral,37.4 ± 0.1 °C
same,Body temperature 4 hours after modeling,[3]; BD-3 10 mg/kg oral,37.3 ± 0.1 °C
same,Body temperature 6 hours after modeling,[3]; BD-3 10 mg/kg oral,37.4 ± 0.1 °C
same,Body temperature 2 hours after modeling,[3]; BD-3 50 mg/kg oral,36.9 ± 0.1 °C
same,Body temperature 8 hours after modeling,[3]; BD-3 50 mg/kg oral,37.3 ± 0.1 °C
same,Body temperature 4 hours after modeling,[3]; BD-3 50 mg/kg oral,37.2 ± 0.1 °C
same,Body temperature 6 hours after modeling,[3]; BD-3 50 mg/kg oral,37.4 ± 0.1 °C
same,Effect on body temperature of model rats (in words),"[3]; different doses of BD-3 (10 mg/kg, 50 mg/kg), at 2 hours and 4 hours after modeling, P<0.05 vs model group",can significantly inhibit the increase in body temperature of model rats
same,Summary: antipyretic effect in yeast fever model (in words),[3]; [5],can significantly inhibit the increase in body temperature at 2 hours and 4 hours after modeling
same,Epilepsy Grade IV incubation period vs model group (in words),[4]; BD-3 50 mg/kg,statistically different from the model group
same,mortality rate,[4]; BD-3 50 mg/kg intragastric,0
same,Grade IV seizure rate,[4]; BD-3 50 mg/kg intragastric,30%
same,Cases of Grade IV,[4]; BD-3 50 mg/kg intragastric,3
same,Cases of deaths,[4]; BD-3 50 mg/kg intragastric,0
same,Grade IV seizure incubation period,[4]; BD-3 50 mg/kg,1573 ± 138 s
same,Grade II seizure incubation period,[4]; BD-3 50 mg/kg,91 ± 6 s
same,Grade III seizure incubation period,[4]; BD-3 50 mg/kg,155 ± 12 s
same,Epilepsy Grade III incubation period vs model group (in words),[4]; BD-3 200 mg/kg,statistically different from the model group
same,mortality rate,[4]; BD-3 200 mg/kg intragastric,0
same,Grade IV seizure rate,[4]; BD-3 200 mg/kg intragastric,60%
same,Cases of Grade IV,[4]; BD-3 200 mg/kg intragastric,6
same,Cases of deaths,[4]; BD-3 200 mg/kg intragastric,0
same,Grade IV seizure incubation period,[4]; BD-3 200 mg/kg,1181 ± 203 s
same,Grade II seizure incubation period,[4]; BD-3 200 mg/kg,99 ± 5 s
same,Grade III seizure incubation period,[4]; BD-3 200 mg/kg,183 ± 12 s
same,"Summary: effect on epilepsy incubation period, PLO model (in words)",[4]; [5],can significantly prolong the incubation period of class III and class IV epilepsy in mice
